Source: the supplement of paper PMC7877785
± gives the uncertainty stated by the source.

Test: self-splicing fitness, log relative to wild type (ln ratio); higher = more splicing; Tetrahymena group I intron in knt gene, E. coli kanamycin selection, DiMSum; sequences stand for … in CUCUCU…GGAGGGAAAAGUUAUCAGGCAUGCACCUGGUAGCUAGUCUUUAAACCAAUAGAUUGCAUCGGUUUAAAAGGCAAGACCGUCAAAUUGCGGGAAAGGGGUCAACAGCCGUUCAGUACCAAGUCUCAGGGGAAACUUUGAGAUGGCCUUGCAAAGGGUAUGGUAAUAAGCUGACGGACAUGGUCCUAACCACGCAGCCAAGUCCUAAGUCAACAGAUCUUCUGUUGAUAUGGAUGCAGUUCACAGACUAAAUGUCGGUCGGGGAAGAUGUAUUCUUCUCAUAAGAUAUAGUCGGACCUCUCCUUAAUGGGAGCUAGCGGAUGAAGUGAUGCAACACUGGAGCCGCUGGGAACUAAUUUGUAUGCGAAAGUAUAUUGAUUAGUUUUGGAGUACUCGUGGUCG
How it was run: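 Colonies from six replicate transformations of E. coli BL21(DE3) were pooled and amplicon-sequenced on an Illumina HiSeq 2500. The library placed an intron with all eight P1ex-region nucleotides randomised inside the knt kanamycin-resistance gene on pET-22b(+), and cells grew overnight at 37°C or 30°C on LB agar with or without 25 μg/mL kanamycin (plus 100 μg/mL carbenicillin, 50 μM IPTG, 0.2% rhamnose). Fitness is the DiMSum error-weighted combination of wild-type-normalised replicate fold changes, kanamycin versus none.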

Sequence	self-splicing fitness (ln) (30 °C)	self-splicing fitness (ln) (37 °C)
UCUAAGCAAUAUUACGACUG	-0.955 ± 0.17	-0.205 ± 0.23
UCUAAGCAAUAUUACGAGUU	-2.94 ± 0.2	-3.27 ± 0.28
UCUAAGCAAUAUUACGAUAG	-1.15 ± 0.07	-0.499 ± 0.1
UCUAAGCAAUAUUACGAUAU	-3.99 ± 0.4	-2.61 ± 0.34
UCUAAGCAAUAUUACGAUCU	-3.07 ± 0.23	-2.08 ± 0.2
UCUAAGCAAUAUUACGAUGC	-3.03 ± 0.18	-2.28 ± 0.21
UCUAAGCAAUAUUACGCAUU	-2.92 ± 0.21	-2.83 ± 0.28
UCUAAGCAAUAUUACGCCUG	-1.6 ± 0.13	-1.14 ± 0.2
UCUAAGCAAUAUUACGCCUU	-3.44 ± 0.36	-2.32 ± 0.27
UCUAAGCAAUAUUACGCGUU	-4.04 ± 0.34	-2.77 ± 0.38
UCUAAGCAAUAUUACGGCUU	-4.01 ± 0.37	-1.22 ± 0.26
UCUAAGCAAUAUUACGGGCU	-4.19 ± 0.4	-1.84 ± 0.3
UCUAAGCAAUAUUACGGGGC		-2.21 ± 0.32
UCUAAGCAAUAUUACGGUAA	-3.48 ± 0.36	-1.33 ± 0.19
UCUAAGCAAUAUUACGUGUA	-1.6 ± 0.12	-0.704 ± 0.1
UCUAAGCAAUAUUACGUGUU	-3.44 ± 0.14	-2.81 ± 0.13
UCUAAGCAAUAUUACGUUCU	-3.14 ± 0.22	-1.47 ± 0.14
UCUAAGCAAUAUUACGUUUA		-1.69 ± 0.37
UCUCAGCAAUAUUACGAAUG	-1.73 ± 0.15	-1.85 ± 0.26
UCUCAGCAAUAUUACGACCG		-1.07 ± 0.47
UCUCAGCAAUAUUACGAUCA	-0.104 ± 0.17	-0.219 ± 0.17
UCUCAGCAAUAUUACGAUGC	-3.28 ± 0.28	-2.55 ± 0.27
UCUCAGCAAUAUUACGCAGG	-4.14 ± 0.42	-2.28 ± 0.25
UCUCAGCAAUAUUACGGAUA	-1.12 ± 0.16	0.0308 ± 0.15
UCUCAGCAAUAUUACGGAUC	-3.82 ± 0.32	-1.52 ± 0.13

Sequence	self-splicing fitness (ln) (30 °C)	self-splicing fitness (ln) (37 °C)
UCUCAGCAAUAUUACGGCGG	-2.46 ± 0.16	-1.01 ± 0.18
UCUCAGCAAUAUUACGGCUG	-2.11 ± 0.13	-2.21 ± 0.28
UCUCAGCAAUAUUACGGGCG	-0.717 ± 0.08	-0.262 ± 0.12
UCUCAGCAAUAUUACGGGUA	-0.605 ± 0.11	-0.0376 ± 0.11
UCUCAGCAAUAUUACGGUAC	-3.18 ± 0.35	-2.52 ± 0.34
UCUCAGCAAUAUUACGGUGC	-3.17 ± 0.24	-3.08 ± 0.23
UCUCAGCAAUAUUACGUAAA	-1.82 ± 0.15	-1.04 ± 0.2
UCUCAGCAAUAUUACGUACA	-1.81 ± 0.21	-0.374 ± 0.15
UCUCAGCAAUAUUACGUGAC	-2.02 ± 0.39	-1.82 ± 0.37
UCUCAGCAAUAUUACGUGUU	-3.47 ± 0.14	-2.73 ± 0.15
UCUGAGCAAUAUUACGAACG	-2.04 ± 0.34	-1.65 ± 0.38
UCUGAGCAAUAUUACGAAGU	-2.62 ± 0.16	-1.56 ± 0.19
UCUGAGCAAUAUUACGACAU	-3.788 ± 0.034	-2.73 ± 0.044
UCUGAGCAAUAUUACGAGAG	-4.12 ± 0.26	-2.69 ± 0.45
UCUGAGCAAUAUUACGAUAC		-2.12 ± 0.25
UCUGAGCAAUAUUACGCAAC		-2.24 ± 0.29
UCUGAGCAAUAUUACGCACC	-3.59 ± 0.45	
UCUGAGCAAUAUUACGCAUG	-2.33 ± 0.18	-1.65 ± 0.17
UCUGAGCAAUAUUACGCUUG	-4.34 ± 0.46	-2.31 ± 0.3
UCUGAGCAAUAUUACGGAGU	-2.86 ± 0.19	-2.57 ± 0.17
UCUGAGCAAUAUUACGGAUG	-4.11 ± 0.31	-2.14 ± 0.23
UCUGAGCAAUAUUACGGCUG	-3.48 ± 0.2	-2.22 ± 0.21
UCUGAGCAAUAUUACGGGCC	-2.67 ± 0.35	
UCUGAGCAAUAUUACGGGUU	-2.32 ± 0.17	-2.5 ± 0.24
UCUGAGCAAUAUUACGUAGU	-2.3 ± 0.11	-0.756 ± 0.13
